# Experimental data taken from PMC4755027.
# Target: Human TLR4 on HEK-Blue reporter cells (human) (UniProt O00206)
# Conditions: scale: absorbance at 640 nm
# Chain of UniProt O00206 (O00206 24-839): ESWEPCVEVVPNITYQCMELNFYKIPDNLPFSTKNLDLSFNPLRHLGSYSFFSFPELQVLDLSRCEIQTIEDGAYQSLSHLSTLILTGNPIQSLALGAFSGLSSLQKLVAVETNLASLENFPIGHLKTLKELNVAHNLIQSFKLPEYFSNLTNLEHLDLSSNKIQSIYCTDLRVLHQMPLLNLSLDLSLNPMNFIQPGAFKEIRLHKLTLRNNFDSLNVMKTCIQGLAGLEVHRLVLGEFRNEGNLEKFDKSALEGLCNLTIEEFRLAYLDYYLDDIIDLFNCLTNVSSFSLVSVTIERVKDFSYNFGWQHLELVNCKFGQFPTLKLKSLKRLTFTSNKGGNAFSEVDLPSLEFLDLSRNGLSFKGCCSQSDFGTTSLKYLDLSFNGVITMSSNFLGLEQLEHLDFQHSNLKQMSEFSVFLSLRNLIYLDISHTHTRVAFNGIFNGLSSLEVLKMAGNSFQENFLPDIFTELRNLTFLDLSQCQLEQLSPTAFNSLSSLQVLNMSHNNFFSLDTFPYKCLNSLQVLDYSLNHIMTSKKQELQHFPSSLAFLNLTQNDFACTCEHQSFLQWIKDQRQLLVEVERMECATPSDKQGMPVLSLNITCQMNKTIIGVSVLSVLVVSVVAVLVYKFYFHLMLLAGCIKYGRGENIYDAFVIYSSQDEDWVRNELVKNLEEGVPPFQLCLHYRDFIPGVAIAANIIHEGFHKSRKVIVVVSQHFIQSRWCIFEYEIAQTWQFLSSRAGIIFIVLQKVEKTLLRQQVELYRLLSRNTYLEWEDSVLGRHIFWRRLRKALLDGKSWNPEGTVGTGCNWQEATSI
"secreted alkaline phosphatase of HEK-Blue human TLR4 reporter cells, absorbance at 640 nm normalized to media controls, mean of three experiments","secreted alkaline phosphatase of HEK-Blue human TLR4 reporter cells, absorbance at 640 nm normalized to media controls, mean of three experiments; significantly superior to equimolar ANXA2t",Substance
1.7,,Bovine annexin A2 heterotetramer (from UniProt P04272 1-339; P60902 1-97) (complex)
,2.7,Human monomeric annexin A2 (from UniProt P07355 1-339) (natural protein)
